± gives the uncertainty stated by the source.
Assay: protein stability index of a GFP-peptide fusion (yeast GPS) (PSI 1-4); higher = more stable; sorted into four equal gates, so the index is relative within each strain
How it was run: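 Each library plasmid carries Cherry plus GFP with a tiled 17-residue yeast protein peptide fused downstream, and the pooled library was carried in yeast. Mid-log cultures in leucine-free medium were sorted into four equal gates by GFP/Cherry ratio. Reads from Illumina sequencing of PCR-amplified plasmids from each gate were assigned to strains by barcodes. Per peptide, the protein stability index was computed as the summed products of gate read frequency and gate number.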

Sequence	protein stability index (doa10∆)	protein stability index (pdr5∆)	protein stability index (san1∆)	protein stability index (ubr1∆)
YWVPDWDGVIPTPAIIK [RPO21]	2.34 ± 0.14	2.7 ± 0.096	2.8 ± 0.081	2.8 ± 0.079
PVSCIIQNDEEYDTPAL [PRP8]	1.79 ± 0.1	2.73 ± 0.077	1.92 ± 0.093	1.22 ± 0.086
SGKSNFFAAIRFVLSDD [SMC3]	3.02 ± 0.11	3.36 ± 0.096	3.38 ± 0.08	3.22 ± 0.052
EYQVIGRRLPTESVPEP [RPL20A]	3.08 ± 0.11	3.21 ± 0.1	3.1 ± 0.13	3.15 ± 0.06
NNTKAGRRKTWKRQNTL [RPL15A]	2.65 ± 0.059	2.95 ± 0.07	2.44 ± 0.083	2.87 ± 0.12
MVEGDSYVETLDSMIEL [MED1]	3.25 ± 0.084	3.24 ± 0.1	3.33 ± 0.051	3.19 ± 0.053
ISVTRQVVLGGTSKYLI [SMC2]	2.65 ± 0.074	2.96 ± 0.14	2.79 ± 0.068	2.73 ± 0.062
KPYDINVVLVTNDRLNR [DIS3]	1.69 ± 0.085	2.92 ± 0.098	2.96 ± 0.094	3.08 ± 0.094
NLQVELLSEHDDHNGEV [YGL100W/SEH1]	3.12 ± 0.088	3.2 ± 0.071	2.83 ± 0.06	3.37 ± 0.055
VSTEGNVPQTLAPVPYE [RPL21A]	3.19 ± 0.072	3.02 ± 0.085	3.11 ± 0.05	3.05 ± 0.068
VLFITPDIVGHEFTLSF [BRR2]	1.87 ± 0.049	2.29 ± 0.049	2.18 ± 0.055	2.3 ± 0.04
DVKFPSNTTTQIQFTPL [SMC3]	2.59 ± 0.16	2.64 ± 0.15	2.98 ± 0.14	2.76 ± 0.052
NHVMYTEVSRKSMKYVK [ECM29]	2.37 ± 0.055	2.61 ± 0.06	2.27 ± 0.078	2.23 ± 0.039
MIVPVRCFSCGKVVGDK [RPB10]	2.64 ± 0.17	2.59 ± 0.12	2.13 ± 0.1	2.66 ± 0.092
DQCKKQRRCLHCGALNG [RPO31]	2.6 ± 0.14	2.71 ± 0.18	2.4 ± 0.11	2.57 ± 0.11
KTSLSIKVENLNDTTEK [SMC2]	2.87 ± 0.058	2.97 ± 0.081	3.09 ± 0.063	2.89 ± 0.05
DVVYALKRQGRTLYGFG [HHF1]	2.77 ± 0.083	2.8 ± 0.11	2.34 ± 0.14	2.38 ± 0.083
GSHLFSIHAHGSTDVGY [PUP1]	2.58 ± 0.078	3.01 ± 0.15	2.92 ± 0.077	2.02 ± 0.081
YGAYNTQIANAGASPMV [PRE4]	2.16 ± 0.1	2.3 ± 0.096	1.92 ± 0.097	1.61 ± 0.063
FSIFNYFKMFPASKHDK [RPC34]	3.28 ± 0.19	1.34 ± 0.12		2.44 ± 0.2
FALPAGSPKSATSKTSE [CDC53]	2.9 ± 0.17	2.92 ± 0.13		
PKDKAIKRMAIRNIVEA [RPS26A]	1.25 ± 0.068	1.63 ± 0.096	1.9 ± 0.15	1.95 ± 0.054
GMVSHKTARGKAALERL [RPL16A]			3.17 ± 0.13	
GFGLVYNSVAEAKKFEP [RPS24A]	3.22 ± 0.1	3.47 ± 0.13	2.87 ± 0.1	2.8 ± 0.14
DPKFRRNHKHALHGTAK [RPL29]	2.34 ± 0.025	2.602 ± 0.022	2.478 ± 0.024	2.636 ± 0.019

Sequence	protein stability index (doa10∆)	protein stability index (pdr5∆)	protein stability index (san1∆)	protein stability index (ubr1∆)
SLPHFPKNSKTPQSKGF [RPO31]	2.94 ± 0.23	3.08 ± 0.22	2.67 ± 0.18	2.98 ± 0.21
PSSLNSDKIPYVAPTKK [SRB4]	2.24 ± 0.073	2.59 ± 0.1	2.15 ± 0.086	2.09 ± 0.063
VNGLLQVLMDINTLNGG [GAL11]	2.98 ± 0.079	3.03 ± 0.077	3 ± 0.075	2.91 ± 0.036
NSPSSALRALQENGTIF [YDL088C/ASM4]	2.13 ± 0.062	2.05 ± 0.053	1.53 ± 0.069	2.01 ± 0.039
PAHTKYMLIEEAASSNK [ITC1]	3.05 ± 0.12	2.93 ± 0.11	3.02 ± 0.1	3.01 ± 0.095
EKLKVNMEKEKDRIIDE [YIL149C/MLP2]	3.37 ± 0.23	3.05 ± 0.2	3.39 ± 0.1	2.75 ± 0.14
WADNYERKEQEEKEKEQ [BRN1]	3.47 ± 0.21		3.49 ± 0.11	3.46 ± 0.14
NERLEINQEKPVKLDEN [SIR4]	3.19 ± 0.17	3.05 ± 0.12	3.44 ± 0.086	3.3 ± 0.12
SGEDAEEELWNSPSKGN [YIL149C/MLP2]	3.15 ± 0.13	3.25 ± 0.084	3.28 ± 0.058	3.21 ± 0.065
ERLVEFSNVNELQEKNV [YIL149C/MLP2]	3.31 ± 0.23	3.36 ± 0.24		3.1 ± 0.2
KIMQSISNKDVIFKIRD [SRB4]	3.34 ± 0.1	2.91 ± 0.15	3.22 ± 0.11	2.72 ± 0.12
VLKSHSNDFEEGSTIRY [YMR129W/POM152]	2.44 ± 0.075	2.8 ± 0.099	2.93 ± 0.067	2.88 ± 0.068
AEQSFDQQSPWLLRLEL [RPO21]	3 ± 0.052	3.14 ± 0.051	3.1 ± 0.039	3.11 ± 0.04
VVGRTTRSNPPFKRKML [REC8]	2.59 ± 0.06	2.77 ± 0.059	2.71 ± 0.055	2.75 ± 0.054
GITYRREDMPFTAEGIV [RPB2]	2.52 ± 0.096	1.86 ± 0.099	2.39 ± 0.13	2.07 ± 0.12
ARILARSERKRTKISRG [ITC1]	2.56 ± 0.062	3.1 ± 0.074	3.07 ± 0.078	2.06 ± 0.046
VVGLGERVSPTDIEEGM [RPT1]		3.33 ± 0.24		
FKPSQEPEFHALSQSSL [RRI1]	2.61 ± 0.05	2.83 ± 0.043	2.8 ± 0.042	2.42 ± 0.04
TMGEETAKKDMSSTTPK [SNF12]	2.58 ± 0.07	3.03 ± 0.076	3.31 ± 0.1	3.27 ± 0.079
LSLVYEIGGSDLKESMV [ECM29]	2.98 ± 0.11	3.32 ± 0.12	3.36 ± 0.051	3.28 ± 0.11
IFKIVQSRLMSTSYHLN [MED6]	2.25 ± 0.18	2.23 ± 0.13	1.31 ± 0.096	2.31 ± 0.094
MGGPKQKGITSYAVSPY [QCR8]	2.46 ± 0.17	2.45 ± 0.2	2.25 ± 0.12	1.63 ± 0.21
YVDTATAKRKSRKRKPK [IRR1]	3.17 ± 0.1	3.32 ± 0.1	3.14 ± 0.16	3.12 ± 0.066
TLDYAERHGYIRGIVKQ [RPL2A]	1.71 ± 0.06	1.71 ± 0.083	1.71 ± 0.079	1.8 ± 0.051
KCIPKKGTVFQFEIPIS [POP4]	1.44 ± 0.16	1.68 ± 0.087	1.49 ± 0.29	1.17 ± 0.052
